Reference: PMC12952242

Columns and labels:
ZNF207 full-length K42E = experiment: EMSA
ZNF207 full-length WT = experiment: EMSA

U1 snRNA gave a Kd (ZNF207 full-length K42E) of 60.4 nM and a Kd (ZNF207 full-length WT) of 48.7 nM.
